Assay results as given in the Human Domainome abundance scans (Beltran et al. 2025).
± gives the uncertainty stated by the source.

B1: Death-inducer obliterator 1, residues 263 to 321; numbered along this chain, Q9BTC0 (parent)
chain: GYDPNALYCICRQPHNNRFMICCDRCEEWFHGDCVGISEARGRLLERNGEDYICPNCTI

Variants of: B1
Assay: abundance fitness (aPCA) (normalised: wild type 0, dead -1); higher = more abundant; growth selection in yeast, the domain comes from the species named
Settings: Homo sapiens

Row | Variant | abundance fitness
1 | GYDPNALYCICRQPHNNRFMICCDRCEDWFHGDCVGISEARGRLLERNGEDYICPNCTI [E28D] | 0.125 ± 0.13
2 | GYDPNALYCICRQPHNNRFMICCDRCEPWFHGDCVGISEARGRLLERNGEDYICPNCTI [E28P] | -0.742 ± 0.13
3 | GYDPNALYCICRQPHNNRFMICCDRCENWFHGDCVGISEARGRLLERNGEDYICPNCTI [E28N] | -0.231 ± 0.17
4 | GYDPNALYCICRQPHNNRFMICCDRCEMWFHGDCVGISEARGRLLERNGEDYICPNCTI [E28M] | -0.056 ± 0.12
5 | GYDPNALYCICRQPHNNRFMICCDRCELWFHGDCVGISEARGRLLERNGEDYICPNCTI [E28L] | -0.055 ± 0.055
6 | GYDPNALYCICRQPHNNRFMICCDRCEERFHGDCVGISEARGRLLERNGEDYICPNCTI [W29R] | 0.173 ± 0.056
7 | GYDPNALYCICRQPHNNRFMICCDRCEEHFHGDCVGISEARGRLLERNGEDYICPNCTI [W29H] | -0.02 ± 0.12
8 | GYDPNALYCICRQPHNNRFMICCDRCEEIFHGDCVGISEARGRLLERNGEDYICPNCTI [W29I] | 0.225 ± 0.064
9 | GYDPNALYCICRQPHNNRFMICCDRCEEDFHGDCVGISEARGRLLERNGEDYICPNCTI [W29D] | 0.025 ± 0.18
10 | GYDPNALYCICRQPHNNRFMICCDRCEETFHGDCVGISEARGRLLERNGEDYICPNCTI [W29T] | 0.242 ± 0.058
11 | GYDPNALYCICRQPHNNRFMICCDRCEECFHGDCVGISEARGRLLERNGEDYICPNCTI [W29C] | 0.045 ± 0.084
12 | GYDPNALYCICRQPHNNRFMICCDRCEELFHGDCVGISEARGRLLERNGEDYICPNCTI [W29L] | 0.215 ± 0.049
13 | GYDPNALYCICRQPHNNRFMICCDRCEENFHGDCVGISEARGRLLERNGEDYICPNCTI [W29N] | 0.224 ± 0.14
14 | GYDPNALYCICRQPHNNRFMICCDRCEEMFHGDCVGISEARGRLLERNGEDYICPNCTI [W29M] | 0.176 ± 0.083
15 | GYDPNALYCICRQPHNNRFMICCDRCEESFHGDCVGISEARGRLLERNGEDYICPNCTI [W29S] | 0.17 ± 0.042
16 | GYDPNALYCICRQPHNNRFMICCDRCEEVFHGDCVGISEARGRLLERNGEDYICPNCTI [W29V] | 0.252 ± 0.056
17 | GYDPNALYCICRQPHNNRFMICCDRCEEGFHGDCVGISEARGRLLERNGEDYICPNCTI [W29G] | -0.02 ± 0.067
18 | GYDPNALYCICRQPHNNRFMICCDRCEEEFHGDCVGISEARGRLLERNGEDYICPNCTI [W29E] | 0.277 ± 0.1
19 | GYDPNALYCICRQPHNNRFMICCDRCEEYFHGDCVGISEARGRLLERNGEDYICPNCTI [W29Y] | 0.064 ± 0.12
20 | GYDPNALYCICRQPHNNRFMICCDRCEEPFHGDCVGISEARGRLLERNGEDYICPNCTI [W29P] | 0.05 ± 0.071
21 | GYDPNALYCICRQPHNNRFMICCDRCEEAFHGDCVGISEARGRLLERNGEDYICPNCTI [W29A] | 0.161 ± 0.056
22 | GYDPNALYCICRQPHNNRFMICCDRCEEKFHGDCVGISEARGRLLERNGEDYICPNCTI [W29K] | 0.2 ± 0.12
23 | GYDPNALYCICRQPHNNRFMICCDRCEEWFNGDCVGISEARGRLLERNGEDYICPNCTI [H31N] | -0.765 ± 0.14

Row | Variant | abundance fitness
24 | GYDPNALYCICRQPHNNRFMICCDRCEEWFMGDCVGISEARGRLLERNGEDYICPNCTI [H31M] | -0.667 ± 0.11
25 | GYDPNALYCICRQPHNNRFMICCDRCEEWFPGDCVGISEARGRLLERNGEDYICPNCTI [H31P] | -1.05 ± 0.22
26 | GYDPNALYCICRQPHNNRFMICCDRCEEWFAGDCVGISEARGRLLERNGEDYICPNCTI [H31A] | -0.636 ± 0.1
27 | GYDPNALYCICRQPHNNRFMICCDRCEEWFRGDCVGISEARGRLLERNGEDYICPNCTI [H31R] | -0.584 ± 0.1
28 | GYDPNALYCICRQPHNNRFMICCDRCEEWFIGDCVGISEARGRLLERNGEDYICPNCTI [H31I] | -0.67 ± 0.096
29 | GYDPNALYCICRQPHNNRFMICCDRCEEWFEGDCVGISEARGRLLERNGEDYICPNCTI [H31E] | -0.923 ± 0.22
30 | GYDPNALYCICRQPHNNRFMICCDRCEEWFTGDCVGISEARGRLLERNGEDYICPNCTI [H31T] | -0.956 ± 0.14
31 | GYDPNALYCICRQPHNNRFMICCDRCEEWFFGDCVGISEARGRLLERNGEDYICPNCTI [H31F] | -0.559 ± 0.12
32 | GYDPNALYCICRQPHNNRFMICCDRCEEWFKGDCVGISEARGRLLERNGEDYICPNCTI [H31K] | -0.967 ± 0.26
33 | GYDPNALYCICRQPHNNRFMICCDRCEEWFQGDCVGISEARGRLLERNGEDYICPNCTI [H31Q] | -0.782 ± 0.29
34 | GYDPNALYCICRQPHNNRFMICCDRCEEWFSGDCVGISEARGRLLERNGEDYICPNCTI [H31S] | -0.776 ± 0.09
35 | GYDPNALYCICRQPHNNRFMICCDRCEEWFDGDCVGISEARGRLLERNGEDYICPNCTI [H31D] | -0.422 ± 0.12
36 | GYDPNALYCICRQPHNNRFMICCDRCEEWFCGDCVGISEARGRLLERNGEDYICPNCTI [H31C] | -0.282 ± 0.075
37 | GYDPNALYCICRQPHNNRFMICCDRCEEWFLGDCVGISEARGRLLERNGEDYICPNCTI [H31L] | -0.628 ± 0.088
38 | GYDPNALYCICRQPHNNRFMICCDRWEEWFHGDCVGISEARGRLLERNGEDYICPNCTI [C26W] | -0.416 ± 0.19
39 | GYDPNALYCICRQPHNNRFMICCDRTEEWFHGDCVGISEARGRLLERNGEDYICPNCTI [C26T] | -0.782 ± 0.16
40 | GYDPNALYCICRQPHNNRFMICCDRREEWFHGDCVGISEARGRLLERNGEDYICPNCTI [C26R] | -1.02 ± 0.16
41 | GYDPNALYCICRQPHNNRFMICCDRMEEWFHGDCVGISEARGRLLERNGEDYICPNCTI [C26M] | -0.926 ± 0.14
42 | GYDPNALYCICRQPHNNRFMICCDRLEEWFHGDCVGISEARGRLLERNGEDYICPNCTI [C26L] | -1.03 ± 0.13
43 | GYDPNALYCICRQPHNNRFMICCDRQEEWFHGDCVGISEARGRLLERNGEDYICPNCTI [C26Q] | -0.985 ± 0.25
44 | GYDPNALYCICRQPHNNRFMICCDRYEEWFHGDCVGISEARGRLLERNGEDYICPNCTI [C26Y] | -0.794 ± 0.13
45 | GYDPNALYCICRQPHNNRFMICCDRPEEWFHGDCVGISEARGRLLERNGEDYICPNCTI [C26P] | -0.599 ± 0.17
